Data reported in PMC12084609, “Structural insights into small-molecule agonist recognition and activation of complement receptor C3aR” (The EMBO Journal, 2025).
Changes are numbered by the printed parent chain. “And” between values parts separate entries of the source, which are not always exact repeats. Identical values can stand only once.

Assays:
Type in all cases: cell-based
C3aR D417^7.35A = target: T1, C3aR D417^7.35A (Homo sapiens, UniProt Q16581, D417A); assay: GloSensor-based cAMP assay, C3aR mutant D417A; details: D4177.35A, single replicates
T1 construct: expressed in transfected cells; host or cells: HEK293T
T1 sequence (Q16581 1-482 D417A): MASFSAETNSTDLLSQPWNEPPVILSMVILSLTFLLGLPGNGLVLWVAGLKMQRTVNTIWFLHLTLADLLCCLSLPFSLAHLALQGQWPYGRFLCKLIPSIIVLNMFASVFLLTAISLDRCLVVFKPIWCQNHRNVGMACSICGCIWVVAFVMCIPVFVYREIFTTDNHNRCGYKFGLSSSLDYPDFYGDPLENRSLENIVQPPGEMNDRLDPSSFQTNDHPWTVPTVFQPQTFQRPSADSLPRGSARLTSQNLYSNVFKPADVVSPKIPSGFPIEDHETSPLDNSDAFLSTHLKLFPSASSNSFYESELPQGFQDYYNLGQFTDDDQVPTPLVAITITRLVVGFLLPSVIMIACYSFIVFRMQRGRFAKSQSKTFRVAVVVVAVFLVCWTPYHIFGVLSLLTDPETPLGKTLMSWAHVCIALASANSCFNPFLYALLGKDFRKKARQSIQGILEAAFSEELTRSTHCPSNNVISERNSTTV
Description: (§1) HEK293T cells were seeded on 6-well plates (NEST) and transfected with pGlosensor™-22F plasmids (Promega) and pcDNA3.1 plasmids encoding C3aR or its mutants an with N-terminal FLAG tag. After 48 h, cells were detached with Accutase solution (Sigma-Aldrich) and washed with PBS, and resuspended in assay buffer (CO2-independent medium with 0.5 mg mL^−1D-luciferin). 100,000–200,000 cells were seeded on 96-well white bottom plates (SPL) and incubated at 37 °C for 45 min followed by 45 min incubation at room temperature. After 90 min of incubation, basal luminescence signals were recorded. In total, 25 μl of test ligand with various concentrations and 1 μM Forskolin (Sigma-Aldrich) were treated to the cells and luminescence signals were measured by Tristar 2 LB 942 multimode reader (Berthold). […] Relative luminescence unit (%) was calculated with the signal of wells treated with vehicle as 0% and the signal of wells treated with 1 μM Forskolin as 100% (DiRaddo et al, [2014]). Nonlinear regression was performed using a three-parameter logistic equation.

C3aR I421^7.39A = target: T2, C3aR I421^7.39A (Homo sapiens, UniProt Q16581, I421A); assay: GloSensor-based cAMP assay, C3aR mutant I421A; details: for cAMP response (% Forskolin): I4217.39A, single replicates
T2 construct: expressed in transfected cells; host or cells: HEK293T
T2 sequence (Q16581 1-482 I421A): T1 sequence (Q16581 1-482 D417A) with A417D, I421A
Description: as §1

C3aR WT = target: T3, C3aR WT (Homo sapiens, UniProt Q16581); assay: GloSensor-based cAMP assay, WT C3aR (HEK293T)
T3 construct: expressed in transfected cells; host or cells: HEK293T
T3 sequence (Q16581 1-482): T1 sequence (Q16581 1-482 D417A) with A417D
Description: as §1

C3a: anaphylatoxin C3a, natural peptide ligand of C3aR (a 77-amino acid peptide), Sigma-Aldrich
cAMP response (% Forskolin) (C3aR D417^7.35A; Log[C3a (M)] -7): 91.99 % Forskolin and 99.64 % Forskolin and 84.06 % Forskolin
cAMP response (% Forskolin) (C3aR D417^7.35A; Log[C3a (M)] -8): 90.00 % Forskolin and 93.47 % Forskolin and 96.64 % Forskolin
cAMP response (% Forskolin) (C3aR D417^7.35A; Log[C3a (M)] -9): 98.82 % Forskolin and 114.21 % Forskolin and 106.52 % Forskolin
cAMP response (% Forskolin) (C3aR D417^7.35A; Log[C3a (M)] -10): 109.81 % Forskolin and 104.73 % Forskolin and 103.88 % Forskolin
cAMP response (% Forskolin) (C3aR D417^7.35A; Log[C3a (M)] -11): 98.54 % Forskolin and 110.53 % Forskolin and 108.95 % Forskolin
cAMP response (% Forskolin) (C3aR D417^7.35A; Log[C3a (M)] -12): 97.82 % Forskolin and 107.45 % Forskolin and 101.02 % Forskolin
Mean Diff. of pIC50, WT vs. I421A (C3aR I421^7.39A; Dunnett's multiple comparisons test, WT minus mutant): -0.119
reduction in ligand-induced signaling vs WT (C3aR I421^7.39A; I421^7.39A mutant): minor effect
ΔpIC50 ± SE of Diff. (C3aR I421^7.39A; I421^7.39A relative to WT C3aR): 0.12 ± 0.03
IC50 (C3aR I421^7.39A; I421^7.39A, dose-response plot, read-out: IC50): 2.54 nM
pIC50 (Replicate) (C3aR I421^7.39A; I421^7.39A, individual replicates): 8.63 and 8.57 and 8.45 and 8.43 and 8.89 and 8.83
pIC50 ± SEM (Mean) (C3aR I421^7.39A; I421^7.39A, mean of independent experiments): 8.61
cAMP response (% Forskolin) (C3aR I421^7.39A; Log[C3a (M)] -7): 16.32 % Forskolin and 12.05 % Forskolin and 12.43 % Forskolin and 14.57 % Forskolin and 9.51 % Forskolin and 8.99 % Forskolin and 8.25 % Forskolin
cAMP response (% Forskolin) (C3aR I421^7.39A; Log[C3a (M)] -8): 20.11 % Forskolin and 16.00 % Forskolin and 16.82 % Forskolin and 18.52 % Forskolin and 13.73 % Forskolin and 11.22 % Forskolin and 10.34 % Forskolin
cAMP response (% Forskolin) (C3aR I421^7.39A; Log[C3a (M)] -9): 77.07 % Forskolin and 83.92 % Forskolin and 80.09 % Forskolin and 92.33 % Forskolin and 88.01 % Forskolin and 57.33 % Forskolin and 61.66 % Forskolin
cAMP response (% Forskolin) (C3aR I421^7.39A; Log[C3a (M)] -10): 97.12 % Forskolin and 96.88 % Forskolin and 97.52 % Forskolin and 98.66 % Forskolin and 91.65 % Forskolin and 90.54 % Forskolin and 92.28 % Forskolin
cAMP response (% Forskolin) (C3aR I421^7.39A; Log[C3a (M)] -11): 100.24 % Forskolin and 95.23 % Forskolin and 97.32 % Forskolin and 97.61 % Forskolin and 88.75 % Forskolin and 89.55 % Forskolin and 96.90 % Forskolin
cAMP response (% Forskolin) (C3aR I421^7.39A; Log[C3a (M)] -12): 96.20 % Forskolin and 95.22 % Forskolin and 96.06 % Forskolin and 97.86 % Forskolin and 95.09 % Forskolin and 99.13 % Forskolin and 96.01 % Forskolin
cAMP response (% Forskolin) (C3aR WT; Log[ligand (M)] -7, individual replicates): 13.23 % Forskolin and 9.10 % Forskolin and 12.07 % Forskolin and 14.17 % Forskolin and 11.07 % Forskolin and 5.64 % Forskolin and 5.88 % Forskolin and 10.80 % Forskolin and 18.77 % Forskolin and 9.30 % Forskolin and 7.84 % Forskolin and 11.11 % Forskolin and 5.15 % Forskolin and 8.46 % Forskolin and 12.88 % Forskolin and 7.97 % Forskolin and 4.89 % Forskolin and 13.21 % Forskolin and 8.34 % Forskolin and 9.36 % Forskolin and 10.44 % Forskolin
cAMP response (% Forskolin) (C3aR WT; Log[ligand (M)] -8, individual replicates): 14.46 % Forskolin and 11.08 % Forskolin and 11.75 % Forskolin and 14.58 % Forskolin and 33.21 % Forskolin and 8.44 % Forskolin and 9.26 % Forskolin and 14.67 % Forskolin and 23.44 % Forskolin and 12.45 % Forskolin and 9.97 % Forskolin and 12.70 % Forskolin and 7.51 % Forskolin and 11.02 % Forskolin and 17.00 % Forskolin and 9.96 % Forskolin and 6.25 % Forskolin and 18.05 % Forskolin and 9.98 % Forskolin and 10.68 % Forskolin and 14.94 % Forskolin
cAMP response (% Forskolin) (C3aR WT; Log[ligand (M)] -9, individual replicates): 89.10 % Forskolin and 91.75 % Forskolin and 55.83 % Forskolin and 67.46 % Forskolin and 97.65 % Forskolin and 80.78 % Forskolin and 91.72 % Forskolin and 89.77 % Forskolin and 62.11 % Forskolin and 58.26 % Forskolin and 94.14 % Forskolin and 92.02 % Forskolin and 88.40 % Forskolin and 88.60 % Forskolin and 88.28 % Forskolin and 92.79 % Forskolin and 82.03 % Forskolin and 98.67 % Forskolin and 72.46 % Forskolin and 83.05 % Forskolin and 92.23 % Forskolin
cAMP response (% Forskolin) (C3aR WT; Log[ligand (M)] -10, individual replicates): 100.49 % Forskolin and 92.00 % Forskolin and 96.47 % Forskolin and 95.65 % Forskolin and 99.73 % Forskolin and 94.19 % Forskolin and 91.55 % Forskolin and 96.59 % Forskolin and 91.09 % Forskolin and 100.53 % Forskolin and 103.10 % Forskolin and 100.18 % Forskolin and 107.39 % Forskolin and 101.42 % Forskolin and 99.05 % Forskolin and 90.86 % Forskolin and 91.78 % Forskolin and 95.04 % Forskolin and 92.70 % Forskolin and 92.81 % Forskolin and 96.03 % Forskolin
cAMP response (% Forskolin) (C3aR WT; Log[ligand (M)] -11, individual replicates): 101.69 % Forskolin and 104.79 % Forskolin and 99.76 % Forskolin and 97.79 % Forskolin and 100.01 % Forskolin and 95.95 % Forskolin and 100.56 % Forskolin and 98.17 % Forskolin and 98.43 % Forskolin and 104.54 % Forskolin and 103.48 % Forskolin and 99.03 % Forskolin and 107.10 % Forskolin and 101.90 % Forskolin and 98.42 % Forskolin and 97.15 % Forskolin and 94.72 % Forskolin and 92.05 % Forskolin and 96.59 % Forskolin and 94.55 % Forskolin and 98.62 % Forskolin
cAMP response (% Forskolin) (C3aR WT; Log[ligand (M)] -12, individual replicates): 96.64 % Forskolin and 93.74 % Forskolin and 99.06 % Forskolin and 103.59 % Forskolin and 106.40 % Forskolin and 103.79 % Forskolin and 101.64 % Forskolin and 99.02 % Forskolin and 93.95 % Forskolin and 101.82 % Forskolin and 99.95 % Forskolin and 96.51 % Forskolin and 98.16 % Forskolin and 96.67 % Forskolin and 94.02 % Forskolin and 101.30 % Forskolin and 98.69 % Forskolin and 95.26 % Forskolin and 98.94 % Forskolin and 96.13 % Forskolin and 98.01 % Forskolin
pIC50 ± SEM (Mean) (C3aR WT; WT C3aR, 1 μM Forskolin, mean of independent experiments): 8.56
pIC50 Value (C3aR WT; WT C3aR, Figure EV1B numerical data, curve fit): 8.52
IC50 (C3aR WT; WT C3aR, decrease in cAMP levels, read-out: IC50): 2.87 nM
pIC50 (Replicate) (C3aR WT; WT C3aR, individual replicates): 8.46 and 8.98 and 8.82 and 8.27 and 8.58 and 8.47 (4×) and 8.89 and 8.95 and 8.48 and 8.53 (2×) and 8.50 and 8.45 and 8.54 and 8.67 and 8.44
cAMP response (% Forskolin) (C3aR WT; WT, Log[C3a (M)] -7, single replicates): 13.23 % Forskolin and 9.10 % Forskolin and 12.07 % Forskolin and 14.17 % Forskolin and 11.07 % Forskolin and 5.64 % Forskolin and 5.88 % Forskolin and 10.80 % Forskolin and 18.77 % Forskolin and 9.30 % Forskolin and 7.84 % Forskolin and 11.11 % Forskolin and 5.15 % Forskolin and 8.46 % Forskolin and 12.88 % Forskolin and 7.97 % Forskolin and 4.89 % Forskolin and 13.21 % Forskolin and 8.34 % Forskolin and 9.36 % Forskolin and 10.44 % Forskolin
cAMP response (% Forskolin) (C3aR WT; WT, Log[C3a (M)] -8, single replicates): 14.46 % Forskolin and 11.08 % Forskolin and 11.75 % Forskolin and 14.58 % Forskolin and 33.21 % Forskolin and 8.44 % Forskolin and 9.26 % Forskolin and 14.67 % Forskolin and 23.44 % Forskolin and 12.45 % Forskolin and 9.97 % Forskolin and 12.70 % Forskolin and 7.51 % Forskolin and 11.02 % Forskolin and 17.00 % Forskolin and 9.96 % Forskolin and 6.25 % Forskolin and 18.05 % Forskolin and 9.98 % Forskolin and 10.68 % Forskolin and 14.94 % Forskolin
cAMP response (% Forskolin) (C3aR WT; WT, Log[C3a (M)] -9, single replicates): 89.10 % Forskolin and 91.75 % Forskolin and 55.83 % Forskolin and 67.46 % Forskolin and 97.65 % Forskolin and 80.78 % Forskolin and 91.72 % Forskolin and 89.77 % Forskolin and 62.11 % Forskolin and 58.26 % Forskolin and 94.14 % Forskolin and 92.02 % Forskolin and 88.40 % Forskolin and 88.60 % Forskolin and 88.28 % Forskolin and 92.79 % Forskolin and 82.03 % Forskolin and 98.67 % Forskolin and 72.46 % Forskolin and 83.05 % Forskolin and 92.23 % Forskolin
cAMP response (% Forskolin) (C3aR WT; WT, Log[C3a (M)] -10, single replicates): 100.49 % Forskolin and 92.00 % Forskolin and 96.47 % Forskolin and 95.65 % Forskolin and 99.73 % Forskolin and 94.19 % Forskolin and 91.55 % Forskolin and 96.59 % Forskolin and 91.09 % Forskolin and 100.53 % Forskolin and 103.10 % Forskolin and 100.18 % Forskolin and 107.39 % Forskolin and 101.42 % Forskolin and 99.05 % Forskolin and 90.86 % Forskolin and 91.78 % Forskolin and 95.04 % Forskolin and 92.70 % Forskolin and 92.81 % Forskolin and 96.03 % Forskolin
cAMP response (% Forskolin) (C3aR WT; WT, Log[C3a (M)] -11, single replicates): 101.69 % Forskolin and 104.79 % Forskolin and 99.76 % Forskolin and 97.79 % Forskolin and 100.01 % Forskolin and 95.95 % Forskolin and 100.56 % Forskolin and 98.17 % Forskolin and 98.43 % Forskolin and 104.54 % Forskolin and 103.48 % Forskolin and 99.03 % Forskolin and 107.10 % Forskolin and 101.90 % Forskolin and 98.42 % Forskolin and 97.15 % Forskolin and 94.72 % Forskolin and 92.05 % Forskolin and 96.59 % Forskolin and 94.55 % Forskolin and 98.62 % Forskolin
cAMP response (% Forskolin) (C3aR WT; WT, Log[C3a (M)] -12, single replicates): 96.64 % Forskolin and 93.74 % Forskolin and 99.06 % Forskolin and 103.59 % Forskolin and 106.40 % Forskolin and 103.79 % Forskolin and 101.64 % Forskolin and 99.02 % Forskolin and 93.95 % Forskolin and 101.82 % Forskolin and 99.95 % Forskolin and 96.51 % Forskolin and 98.16 % Forskolin and 96.67 % Forskolin and 94.02 % Forskolin and 101.30 % Forskolin and 98.69 % Forskolin and 95.26 % Forskolin and 98.94 % Forskolin and 96.13 % Forskolin and 98.01 % Forskolin
